Reference: patent US20250163166A1 (REGENECORE BIOTECH, published 2025)
Numbering of substitutions follows the chain as printed.

T1: human recombinant CD123 protein (human, UniProt P26951 19-300)
T1 construct: range 19-300
T1 sequence (looked up): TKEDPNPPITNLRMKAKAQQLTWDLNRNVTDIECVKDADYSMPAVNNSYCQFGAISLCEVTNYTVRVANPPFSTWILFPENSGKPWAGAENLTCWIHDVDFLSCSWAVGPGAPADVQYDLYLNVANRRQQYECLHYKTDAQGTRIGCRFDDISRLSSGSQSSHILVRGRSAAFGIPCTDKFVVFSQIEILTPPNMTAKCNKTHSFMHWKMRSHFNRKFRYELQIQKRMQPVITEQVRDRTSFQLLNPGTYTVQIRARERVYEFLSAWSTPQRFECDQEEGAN

B1: bispecific antibody BM#1 against CD33 and CD123 (bispecific antibody, human IgG1)
chain 1: QVQLVESGGGSVQAGGSLRLSCAASGYTYSSTCIGWFRQAPGKDREGVAFAYTGGGVTYADSVKGRFTISQDNAKNTVHLIMNSLKPEDTAMYYCAAKTRGGCWAAAAFYNYWGQGTQVTVSSEPKSCDKTHTCPPCPAPELLGGPSVFLFPPKPKDTLMISRTPEVTCVVVDVSHEDPEVKFNWYVDGVEVHNAKTKPREEQYNSTYRVVSVLTVLHQDWLNGKEYKCKVSNKALPAPIEKTISKAKGQPREPQVYTLPPSRDELTKNQVSLWCLVKGFYPSDIAVEWESNGQPENNYKTTPPVLVSDGSFTLYSKLTVDKSRWQQGNVFSCSVMHEALHNHYTQKSLSLSPGK
chain 2: not shown
notes: VHH-Fc heterodimer
B2: bispecific antibody BM#3 against CD33 and CD123 (bispecific antibody, human IgG1)
chain 1: B1 chain 1 with W274V
chain 2: not shown
notes: VHH-Fc heterodimer; also called BM-RT2831-#3
B3: bispecific antibody BM#26 against CD33 and CD123 (bispecific antibody, human IgG1)
chain 1: B1 chain 1 with D264K, E265K, W274T
chain 2: QVQLVESGGGSVQAGGSLKLSCAASRFIFSRCGMGWFRQAPGKERELVSTISGDGTTFYADSVKGRFTISQHNAATTLYLQMNSLKLEDTAVYYCAADCYNRKYWGQGTQVTVSSEPKSCDKTHTCPPCPAPELLGGPSVFLFPPKPKDTLMISRTPEVTCVVVDVSHEDPEVKFNWYVDGVEVHNAKTKPREEQYNSTYRVVSVLTVLHQDWLNGKEYKCKVSNKALPAPIEKTISKAKGQPREPQVYTLPPSRDELTKNQVSLTCLVEGFYPSDIAVEWESNGQPENNYKTTPPVLDSDGSFFLYSWLTVDKSRWQQGNVFSCSVMHEALHNHYTQESLSLSPGK
notes: VHH-Fc heterodimer
B4: bispecific antibody BM#23 against CD33 and CD123 (bispecific antibody, human IgG1)
chain 1: B1 chain 1 with E265D, W274T
chain 2: not shown
notes: VHH-Fc heterodimer; also called BM-RT2831-#23
B5: bispecific antibody BM#22 against CD33 and CD123 (bispecific antibody, human IgG1)
chain 1: B1 chain 1 with E265K, W274T
chain 2: not shown
notes: VHH-Fc heterodimer; also called BM-RT2831-#22
B6: bispecific antibody BM#36 against CD33 and CD123 (bispecific antibody, human IgG1)
chain 1: not shown
chain 2: B3 chain 2 with E270K, T294S, V297A, F305A, Y307V, W309K, E339K
notes: VHH-Fc heterodimer
B7: bispecific antibody BM#13 against CD33 and CD123 (bispecific antibody, human IgG1)
chain 1: not shown
chain 2: B3 chain 2 with E270K, D299V, F305T, Y307A, W309K, E339K
notes: VHH-Fc heterodimer
B8: bispecific antibody BM#27 against CD33 and CD123 (bispecific antibody, human IgG1)
chain 1: B1 chain 1 with D264K, E265D, W274T
chain 2: B3 chain 2 with E270Y
notes: VHH-Fc heterodimer; also called BM-RT2831-#27
B9: bispecific antibody BM#30 against CD33 and CD123 (bispecific antibody, human IgG1)
chain 1: B1 chain 1 with Q255R, E265K, W274T, V307D, T313F, Y315A
chain 2: B3 chain 2 with K260D, W309V, E339K
notes: VHH-Fc heterodimer; also called BM-RT2831-#30
B10: bispecific antibody BM#12 against CD33 and CD123 (bispecific antibody, human IgG1)
chain 1: B1 chain 1 with K278E, V307D, T313F, K317D
chain 2: not shown
notes: VHH-Fc heterodimer
B11: bispecific antibody BM#32 against CD33 and CD123 (bispecific antibody, human IgG1)
chain 1: B1 chain 1 with Q255R, E265D, W274T, V307D, T313F, Y315A
chain 2: B3 chain 2 with K260D, E270Y, W309V, E339K
notes: VHH-Fc heterodimer; also called BM-RT2831-#32
B12: bispecific antibody BM#14 against CD33 and CD123 (bispecific antibody, human IgG1)
chain 1: B1 chain 1 with W274V, K278E, V307D, T313F, K317D
chain 2: B3 chain 2 with E257K, E270K, D299K, Y307A, W309K, E339K
notes: VHH-Fc heterodimer
B13: bispecific antibody BM#21 against CD33 and CD123 (bispecific antibody, human IgG1)
chain 1: B1 chain 1 with D264K, W274T
chain 2: not shown
notes: VHH-Fc heterodimer; also called BM-RT2831-#21
B14: bispecific antibody BM#29 against CD33 and CD123 (bispecific antibody, human IgG1)
chain 1: B1 chain 1 with Q255R, D264K, W274T, V307D, T313F, Y315A
chain 2: B3 chain 2 with K260D, E270K, W309V
notes: VHH-Fc heterodimer; also called BM-RT2831-#29
B15: bispecific antibody BM#28 against CD33 and CD123 (bispecific antibody, human IgG1)
chain 1: B1 chain 1 with D264K, E265D, W274T, V307K, T313F
chain 2: B3 chain 2 with E270Y, W309D
notes: VHH-Fc heterodimer
B16: bispecific antibody BM#4 against CD33 and CD123 (bispecific antibody, human IgG1)
chain 1: B1 chain 1 with E265K, W274V, V307K, T313F
chain 2: B3 chain 2 with Y307A, W309D, E339K
notes: VHH-Fc heterodimer; also called BM-RT2831-#4
B17: bispecific antibody BM#2 against CD33 and CD123 (bispecific antibody, human IgG1)
chain 1: B1 chain 1 with E265K, V307K, T313F
chain 2: not shown
notes: VHH-Fc heterodimer
B18: bispecific antibody BM#24 against CD33 and CD123 (bispecific antibody, human IgG1)
chain 1: B1 chain 1 with D264K, E265D, W274T, V307D, T313F, Y315A
chain 2: B3 chain 2 with E270Y, W309V
notes: VHH-Fc heterodimer; also called BM-RT2831-#24
B19: anti-CD123 single domain antibody (VHH)
VHH: QVQLVESGGGSVQAGGSLKLSCAASRFIFSRCGMGWFRQAPGKERELVSTISGDGTTFYADSVKGRFTISQHNAATTLYLQMNSLKLEDTAVYYCAADCYNRKYWGQGTQVTVSS
notes: Tested as crude extract from the pMECS clone and detected through an HA tag; also called second VHH

Each binder was assayed against T2, human FCγRIIIa receptor (human, UniProt P08637 17-208, limits assumed) (assay: BLI; Ratio against the hIgG (hIgG1) control, fits KD(hIgG)/KD(sample)).
T2 construct: Used in solution as the 'antigen' in BLI; also called FcγIIIa receptor
T2 sequence (P08637 17-208 limits assumed): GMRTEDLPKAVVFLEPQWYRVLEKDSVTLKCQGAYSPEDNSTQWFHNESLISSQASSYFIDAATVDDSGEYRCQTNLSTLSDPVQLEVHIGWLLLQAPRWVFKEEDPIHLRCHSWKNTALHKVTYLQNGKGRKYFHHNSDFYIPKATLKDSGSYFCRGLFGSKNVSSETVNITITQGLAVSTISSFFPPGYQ
Protocol: (§1) (3) Preparation of antigen working solution: 200 nM antigen (FCγRIIIa) in SD buffer was first prepared at and then serially diluted in 2 folds to prepare a total of 5 concentration gradients, in addition to which a zero concentration was prepared.
(§2) (11) Data analysis: related constants, such as KD, Kon, Koff, X2, Full R2 and the like were calculated in Data Analysis software.
(§3) In the examples of the present application, the modified bispecific antibody was subjected to BLI test to determine the affinity of the modified bispecific antibody to human FCγRIIIa.

Row | Ratio | Binder
1 | 1.29 | B1
2 | 1 | B2
3 | 1.15 | B3
4 | 1.08 | B4
5 | 1.03 | B5
6 | 1.38 | B6
7 | 1.42 | B7
8 | 0.91 | B8
9 | 1.27 | B9
10 | 1.65 | B10
11 | 1.17 | B11
12 | 1.61 | B12
13 | 1.04 | B13
14 | 1.2 | B14
15 | 1.45 | B15
16 | 1.19 | B16
17 | 1.12 | B17
18 | 1.06 | B18

These binders were tested against T2, human FCγRIIIa receptor (assay: BLI (Octet 96), antibody loaded on sensor, FCγRIIIa 200 nM and 2-fold dilutions in solution).
Protocol: as §1, §2, §3

Row | Kd | Binder
19 | 68.9 nM | B1
20 | 88.2 nM | B2
21 | 76.9 nM | B3
22 | 82.1 nM | B4
23 | 86.3 nM | B5
24 | 64.2 nM | B6
25 | 62.5 nM | B7
26 | 96.9 nM | B8
27 | 69.6 nM | B9
28 | 53.8 nM | B10
29 | 76 nM | B11
30 | 55.2 nM | B12
31 | 85.4 nM | B13
32 | 73.9 nM | B14
33 | 61.3 nM | B15
34 | 74.2 nM | B16
35 | 79.1 nM | B17
36 | 83.3 nM | B18

Each binder was assayed against T1, human recombinant CD123 protein (assay: ELISA of crude antibody extract on coated antigen, anti-HA detection; positive clone if OD450 is more than 5 times the control).
Protocol: 2. CD33 protein or CD123 protein was diluted into 100 mM NaHCO₃ at pH 8.3. An ELISA plate was coated with 100 μg CD33 protein at 4° C. overnight. The next day, […] BSA-Biotin protein was added to the ELISA plate.
3. 100 μL of crude antibody extract obtained in the above step was transferred to the ELISA plate into which the antigen was added, and incubated at room temperature for 1 h.

Row | binding result | Binder
37 | binds | B19
